In article PMC9700037:

Assays:
[1] = target: T1, biotin-MBP-NLRP1 wt (Avi-MBP-tev-NLRP1) (human), Q9C000; experiment: SPR; 20-fold excess Val-boroPro (VbP); NLRP1 multimer; conditions: enzyme; chains chain; biotin (on the Avi tag, BirA co-expressed); remark: other sources report otherwise
T1 chain: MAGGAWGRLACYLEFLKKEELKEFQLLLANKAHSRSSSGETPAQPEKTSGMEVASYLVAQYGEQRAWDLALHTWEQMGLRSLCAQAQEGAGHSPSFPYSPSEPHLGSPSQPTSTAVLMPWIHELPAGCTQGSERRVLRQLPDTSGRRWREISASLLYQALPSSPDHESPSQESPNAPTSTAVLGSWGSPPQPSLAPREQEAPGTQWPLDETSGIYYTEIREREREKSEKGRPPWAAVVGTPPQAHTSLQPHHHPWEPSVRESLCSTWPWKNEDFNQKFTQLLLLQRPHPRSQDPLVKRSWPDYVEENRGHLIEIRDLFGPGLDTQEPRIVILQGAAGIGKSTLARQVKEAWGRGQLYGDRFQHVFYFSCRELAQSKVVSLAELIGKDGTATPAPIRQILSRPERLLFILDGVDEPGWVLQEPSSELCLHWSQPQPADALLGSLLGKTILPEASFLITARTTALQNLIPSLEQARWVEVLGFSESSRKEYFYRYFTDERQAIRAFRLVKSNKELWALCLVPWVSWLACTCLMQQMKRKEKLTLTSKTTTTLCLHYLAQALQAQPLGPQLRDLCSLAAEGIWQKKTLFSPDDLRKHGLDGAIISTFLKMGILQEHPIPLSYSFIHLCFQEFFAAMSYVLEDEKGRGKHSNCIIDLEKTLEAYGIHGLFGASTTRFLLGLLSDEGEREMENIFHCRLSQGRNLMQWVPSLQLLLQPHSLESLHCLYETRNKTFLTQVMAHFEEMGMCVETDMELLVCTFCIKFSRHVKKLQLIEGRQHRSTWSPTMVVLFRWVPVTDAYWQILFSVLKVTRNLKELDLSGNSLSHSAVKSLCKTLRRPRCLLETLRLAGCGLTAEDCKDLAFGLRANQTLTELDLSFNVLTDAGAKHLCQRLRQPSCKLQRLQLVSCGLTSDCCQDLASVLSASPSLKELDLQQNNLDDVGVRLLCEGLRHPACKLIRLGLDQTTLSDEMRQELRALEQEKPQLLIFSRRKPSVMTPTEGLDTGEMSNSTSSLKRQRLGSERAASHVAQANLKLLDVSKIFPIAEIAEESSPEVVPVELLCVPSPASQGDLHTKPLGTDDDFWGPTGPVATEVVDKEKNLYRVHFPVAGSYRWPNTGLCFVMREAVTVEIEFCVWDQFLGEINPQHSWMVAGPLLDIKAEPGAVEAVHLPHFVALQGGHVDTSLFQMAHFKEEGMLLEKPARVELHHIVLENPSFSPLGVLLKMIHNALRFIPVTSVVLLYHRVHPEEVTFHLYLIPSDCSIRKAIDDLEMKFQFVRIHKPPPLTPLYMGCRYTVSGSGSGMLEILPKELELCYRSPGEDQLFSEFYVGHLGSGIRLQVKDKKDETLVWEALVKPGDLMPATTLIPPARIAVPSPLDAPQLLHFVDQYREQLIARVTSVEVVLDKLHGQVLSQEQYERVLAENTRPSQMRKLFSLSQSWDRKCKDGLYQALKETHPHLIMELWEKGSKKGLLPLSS

[2] = target: T2, Biotin-FLAG-NLRP1 wt (human), Q9C000; experiment: SPR; Biotin-FLAG-NLRP1 (from HEK293T) or biotin-MBP-NLRP1 (from Sf9, multimer fraction) or biotin-MBP immobilised on a streptavidin chip; DPP9 injected at 78-2500 nM, single-cycle kinetics, 10 mM Hepes pH 7.5, 150 mM NaCl, 0.5 mM TCEP, 0.05% Tween-20; conditions: remark: other sources report otherwise
T2 chain: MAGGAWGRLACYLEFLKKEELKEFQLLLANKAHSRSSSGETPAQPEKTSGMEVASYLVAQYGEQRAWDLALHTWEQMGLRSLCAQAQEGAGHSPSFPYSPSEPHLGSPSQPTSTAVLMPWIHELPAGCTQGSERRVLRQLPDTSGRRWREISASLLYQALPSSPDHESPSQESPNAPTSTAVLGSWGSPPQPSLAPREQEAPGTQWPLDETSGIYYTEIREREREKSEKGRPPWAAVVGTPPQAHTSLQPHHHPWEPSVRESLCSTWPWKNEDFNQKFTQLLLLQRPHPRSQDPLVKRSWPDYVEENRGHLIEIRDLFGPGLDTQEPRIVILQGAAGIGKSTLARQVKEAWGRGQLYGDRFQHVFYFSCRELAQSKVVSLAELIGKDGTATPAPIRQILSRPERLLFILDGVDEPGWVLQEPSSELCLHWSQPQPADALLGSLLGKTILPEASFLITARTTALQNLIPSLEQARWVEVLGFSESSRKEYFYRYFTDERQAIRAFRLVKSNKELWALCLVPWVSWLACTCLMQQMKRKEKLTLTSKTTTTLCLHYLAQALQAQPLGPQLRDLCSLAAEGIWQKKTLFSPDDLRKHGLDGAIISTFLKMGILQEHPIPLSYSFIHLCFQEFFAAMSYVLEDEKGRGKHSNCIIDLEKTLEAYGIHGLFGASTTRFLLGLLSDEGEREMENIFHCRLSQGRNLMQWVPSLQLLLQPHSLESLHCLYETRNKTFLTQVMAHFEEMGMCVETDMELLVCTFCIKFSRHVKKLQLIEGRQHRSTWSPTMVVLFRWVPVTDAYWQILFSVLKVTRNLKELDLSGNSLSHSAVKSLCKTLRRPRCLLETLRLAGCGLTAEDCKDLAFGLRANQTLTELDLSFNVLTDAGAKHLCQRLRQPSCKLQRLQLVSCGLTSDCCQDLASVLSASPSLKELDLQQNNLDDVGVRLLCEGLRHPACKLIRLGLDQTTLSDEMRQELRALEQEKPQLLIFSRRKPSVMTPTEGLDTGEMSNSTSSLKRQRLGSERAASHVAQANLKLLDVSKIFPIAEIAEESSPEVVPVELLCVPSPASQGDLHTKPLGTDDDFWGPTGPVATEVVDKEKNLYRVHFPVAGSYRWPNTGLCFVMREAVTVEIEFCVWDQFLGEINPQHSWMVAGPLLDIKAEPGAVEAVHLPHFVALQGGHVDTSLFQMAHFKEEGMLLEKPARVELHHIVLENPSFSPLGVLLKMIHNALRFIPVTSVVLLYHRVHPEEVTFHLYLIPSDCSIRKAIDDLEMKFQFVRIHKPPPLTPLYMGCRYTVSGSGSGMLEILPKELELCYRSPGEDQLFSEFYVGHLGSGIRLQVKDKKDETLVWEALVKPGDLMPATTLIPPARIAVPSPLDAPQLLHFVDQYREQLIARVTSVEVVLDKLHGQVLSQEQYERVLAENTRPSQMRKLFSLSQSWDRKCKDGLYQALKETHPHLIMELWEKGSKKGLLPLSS

[3] = target: T1, biotin-MBP-NLRP1 wt (Avi-MBP-tev-NLRP1) …; experiment: as above; conditions: remark: other sources report otherwise
[4] = target: T1, biotin-MBP-NLRP1 wt (Avi-MBP-tev-NLRP1) …; experiment: SPR; NLRP1 void (high MW) fraction; conditions: enzyme; chains chain; biotin (on the Avi tag, BirA co-expressed); remark: other sources report otherwise
His6-tev-DPP9, Q86TI2 [5] = experiment: SEC-MALS; co-eluting SEC fractions of FIIND, DPP9 and free UPA co-expressed in Sf9 and co-purified; 0.5-1.0 mg/ml, Superose 6 increase (10/300) GL, buffer A without glycerol; conditions: remark: other sources report otherwise
His6-tev-DPP9, Q86TI2 [6] = experiment: SEC-MALS; co-eluting SEC fractions of FIIND and DPP9 co-expressed in Sf9 WITHOUT the free UPA construct, co-purified; 0.5-1.0 mg/ml, Superose 6 increase (10/300) GL, buffer A without glycerol; conditions: remark: other sources report otherwise

- Kd [1]: 168 nM
- Kd [2]: 155 nM
- Kd [3]: 140 nM
- Kd [4]: 173 nM
- stoichiometry N (His6-tev-DPP9, Q86TI2 [5]): 2
- stoichiometry N (His6-tev-DPP9, Q86TI2 [6]): 2
B1: His6-tev-DPP9, Q86TI2 1-863 (protein)
chain: MATTGTPTADRGDAAATDDPAARFQVQKHSWDGLRSIIHGSRKYSGLIVNKAPHDFQFVQKTDESGPHSHRLYYLGMPYGSRENSLLYSEIPKKVRKEALLLLSWKQMLDHFQATPHHGVYSREEELLRERKRLGVFGITSYDFHSESGLFLFQASNSLFHCRDGGKNGFMVSPMKPLEIKTQCSGPRMDPKICPADPAFFSFINNSDLWVANIETGEERRLTFCHQGLSNVLDDPKSAGVATFVIQEEFDRFTGYWWCPTASWEGSEGLKTLRILYEEVDESEVEVIHVPSPALEERKTDSYRYPRTGSKNPKIALKLAEFQTDSQGKIVSTQEKELVQPFSSLFPKVEYIARAGWTRDGKYAWAMFLDRPQQWLQLVLLPPALFIPSTENEEQRLASARAVPRNVQPYVVYEEVTNVWINVHDIFYPFPQSEGEDELCFLRANECKTGFCHLYKVTAVLKSQGYDWSEPFSPGEDEFKCPIKEEIALTSGEWEVLARHGSKIWVNEETKLVYFQGTKDTPLEHHLYVVSYEAAGEIVRLTTPGFSHSCSMSQNFDMFVSHYSSVSTPPCVHVYKLSGPDDDPLHKQPRFWASMMEAASCPPDYVPPEIFHFHTRSDVRLYGMIYKPHALQPGKKHPTVLFVYGGPQVQLVNNSFKGIKYLRLNTLASLGYAVVVIDGRGSCQRGLRFEGALKNQMGQVEIEDQVEGLQFVAEKYGFIDLSRVAIHGWSYGGFLSLMGLIHKPQVFKVAIAGAPVTVWMAYDTGYTERYMDVPENNQHGYEAGSVALHVEKLPNEPNRLLILHGFLDENVHFFHTNFLVSQLIRAGKPYQLQIYPNERHSIRCPESGEHYEVTLLHFLQEYL
